Results as given in article PMC8755724, “Single particle cryo-EM structure of the outer hair cell motor protein prestin” (Nature Communications, 2022).

Molecular target: the molecule itself
Assay: cryo-EM structure; single-particle cryo-EM of detergent-solubilised prestin (extracted in digitonin, purified in GDN), about 2 mg/ml, 10 mM HEPES, 200 mM NaCl, 0.02% GDN, pH 7.4; C2 symmetry imposed; 3.6 Å

B1: full-length prestin from gerbil (Meriones unguiculatus) tagged at its C terminus with enhanced yellow fluorescent protein (EYFP) (natural protein, UniProt Q9JKQ2 1-744, looked up)
chain: MDHAEENEIPVATQKYHVERPIFSHPVLQERLHVKDKVSESIGDKLKQAFTCTPKKIRNIIYMFLPITKWLPAYKFKEYVLGDLVSGISTGVLQLPQGLAFAMLAAVPPVFGLYSSFYPVIMYCFFGTSRHISIGPFAVISLMIGGVAVRLVPDDIVIPGGVNATNGTEARDALRVKVAMSVTLLSGIIQFCLGVCRFGFVAIYLTEPLVRGFTTAAAVHVFTSMLKYLFGVKTKRYSGIFSVVYSTVAVLQNVKNLNVCSLGVGLMVFGLLLGGKEFNERFKEKLPAPIPLEFFAVVMGTGISAGFNLHESYSVDVVGTLPLGLLPPANPDTSLFHLVYVDAIAIAIVGFSVTISMAKTLANKHGYQVDGNQELIALGICNSIGSLFQTFSISCSLSRSLVQEGTGGKTQLAGCLASLMILLVILATGFLFESLPQAVLSAIVIVNLKGMFMQFSDLPFFWRTSKIELTIWLTTFVSSLFLGLDYGLITAVIIALLTVIYRTQSPSYKVLGQLPDTDVYIDIDAYEEVKEIPGIKIFQINAPIYYANSDLYSNALKRKTGVNPALIMGARRKAMRKYAKEVGNANIANAAVVKVDGEVDGENATKPEEEDDEVKYPPIVIKTTFPEELQRFMPQTENVHTIILDFTQVNFIDSVGVKTLAVMVKEYGDVGIYVYLAGCSPQVVNDLTRNRFFENPALKELLFHSIHDAVLGSHVREAMAEQEASAPPPQDDMEPNATPTTPEA
notes: prestin (Slc26a5), gerbil (Meriones unguiculatus), GenBank AF230376, full-length cDNA; the model is built to residue A726; also called Slc26a5; prestin-YFP; not shown: EYFP, C-terminal, kept
- stoichiometry N: 2
